This experiment deals with GDF8, O14793. Briefly: SPR (Biacore), anti-Fc capture of receptor; very low signal. As to conditions: remark: other sources report otherwise. Background: Surface plasmon resonance follows binding to a sensor surface in real time, without labels.
GDF8, O14793, sequence (O14793 267-375 limits assumed): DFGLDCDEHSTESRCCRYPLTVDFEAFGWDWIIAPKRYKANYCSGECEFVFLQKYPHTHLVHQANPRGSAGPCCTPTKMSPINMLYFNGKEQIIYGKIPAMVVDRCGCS

B1: ALK4-Fc homodimer, P36896 24-126 (Fc fusion, not shown: a dimerising Fc or GST)
chain: SGPRGVQALLCACTSCLQANYTCETDGACMVSIFNLDGMEHHVRTCIPKVELVPAGKPFYCLSSEDLRNTHCCYTDYCNRIDLRVPSGHLKEPEHPSMWGPVE
For orientation: Kd means the constant that tells how readily two partners part at equilibrium. Usually koff stands for the rate constant with which the complex falls apart. Low readings indicate a long-lived complex, high ones a short-lived complex. For orientation: kon means the second-order rate constant of association. High values mean faster complex formation, low ones slower complex formation. As for B1, the Kd amounted to 15 nM, the koff worked out at 0.0019 s⁻¹ and the kon came out at 130000 M⁻¹ s⁻¹.

Source of the values: patent publication US20240252628A1.
